Experimental data published in patent US20150266962A1.

Target: human IL-13Rα2 on the surface of human tumour cell lines (human) (UniProt Q14627)
Assay: cell-based or functional assay

Chain of human IL-13Rα2 on the surface of human tumour cell lines (human) (Q14627 27-380): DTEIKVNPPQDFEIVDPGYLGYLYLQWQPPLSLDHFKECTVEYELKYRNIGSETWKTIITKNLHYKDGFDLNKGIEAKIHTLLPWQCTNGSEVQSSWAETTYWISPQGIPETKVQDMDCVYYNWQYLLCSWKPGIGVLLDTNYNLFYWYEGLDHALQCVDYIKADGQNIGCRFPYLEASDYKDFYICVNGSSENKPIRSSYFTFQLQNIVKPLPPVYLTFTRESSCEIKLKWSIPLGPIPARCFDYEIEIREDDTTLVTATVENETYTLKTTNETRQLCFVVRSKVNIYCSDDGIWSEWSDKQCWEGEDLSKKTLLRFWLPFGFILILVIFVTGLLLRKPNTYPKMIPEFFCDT

| % internalization, 15 min, A375 [%] | % internalization, 15 min, H460R [%] | % internalization, 15 min, Hs766T [%] | % internalization, 15 min, PC3MM2 [%] | % internalization, 4 hours, A375 [%] | % internalization, 4 hours, H460R [%] | % internalization, 4 hours, Hs766T [%] | % internalization, 4 hours, PC3MM2 [%] | Substance | IC50 (ng Ab/mL), in vitro cytotoxicity, A375 [ng Ab/mL] | IC50 (ng Ab/mL), in vitro cytotoxicity, PC3MM2 [ng Ab/mL] |
| --- | --- | --- | --- | --- | --- | --- | --- | --- | --- | --- |
| 49.3 | 57.5 | 60.8 | 60.2 | 68.2 | 49.2 | 73.6 | 49.7 | ab27414 (Abcam), monoclonal mouse IgG1 anti-IL-13Rα2 (antibody) | – | – |
| – | – | – | – | – | – | – | – | hIgG8.8-mc-3377 non-binding control ADC (antibody) | > 400000 | > 400000 |
| – | – | – | – | – | – | – | – | hIgG8.8-vc-0101 non-binding control ADC (antibody) | > 400000 | > 400000 |
